Measurements from US10081665B2, “Peptides and combination of peptides for use in immunotherapy against various tumors” (immatics biotechnologies GmbH, priority 2015, dated 2018).

Target: HLA-A*02:01 (Homo sapiens, UniProt P04439, D140Y/D185E/D98H/E176V/E277Q/G131W/G231S/I119V/I121R/I166T/I218V/L300P/L318F/N151K/N90K/P208A/P217A/Q86G/Q94H/R138H/R169H/T345S)
Assay: MHC binding assay (UV-ligand exchange, beta2m ELISA)
Details: binding to HLA-A*02:01, β2m ELISA
Source text: Candidate peptides for T cell based therapies according to the present invention were further tested for their MHC binding capacity (affinity). The individual peptide-MHC complexes were produced by UV-ligand exchange, where a UV-sensitive peptide is cleaved upon UV-irradiation, and exchanged with the peptide of interest as analyzed. Only peptide candidates that can effectively bind and stabilize the peptide-receptive MHC molecules prevent dissociation of the MHC complexes. To determine the yield of the exchange reaction, an ELISA was performed based on the detection of the light chain (β2m) of stabilized MHC complexes. The assay was performed as generally described in Rodenko et al. (Rodenko et al., 2006).
96 well MAXISorp plates (NUNC) were coated over night with 2 ug/ml streptavidin in PBS at room temperature, washed 4× and blocked for 1 h at 37° C. in 2% BSA containing blocking buffer. Refolded HLA-A*02:01/MLA-001 monomers served as standards, covering the range of 15-500 ng/ml. Peptide-MHC monomers of the UV-exchange reaction were diluted 100 fold in blocking buffer. Samples were incubated for 1 h at 37° C., washed four times, incubated with 2 ug/ml HRP conjugated anti-82m for 1 h at 37° C., washed again and detected with TMB solution that is stopped with […]. Absorption was measured at 450 nm. Candidate peptides that show a high exchange yield (preferably higher than 50%, most preferred higher than 75%) are generally preferred for a generation and production of antibodies or fragments thereof, and/or T cell receptors or fragments thereof, as they show sufficient avidity to the MHC molecules and prevent dissociation of the MHC complexes.

Substance	Peptide exchange (MHC class I binding score, peptide exchange yield)
119 (SLIEESEEL; listed as Homo sapiens) [compound 119]	++ (≥20% = ++)
211 (LLTTVLINA; listed as Homo sapiens) [compound 211]	+++ (≥50 = +++)
283 (ALSELLQQV; listed as Homo sapiens) [compound 283]	+++ (≥50 = +++)
262 (LLLEAVWHL; listed as Homo sapiens) [compound 262]	+++ (≥50 = +++)
111 (AQLEGKLVSI; listed as Homo sapiens) [compound 111]	+++ (≥50 = +++)
166 (LLGDSSFFL; listed as Homo sapiens) [compound 166]	+++ (≥50 = +++)
74 (GLAFLPASV; listed as Homo sapiens) [compound 74]	++ (≥20% = ++)
230 (KLLNMIFSI; listed as Homo sapiens) [compound 230]	+++ (≥50 = +++)
155 (TLDSYLKAV; listed as Homo sapiens) [compound 155]	++ (≥20% = ++)
65 (SLSEKSPEV; listed as Homo sapiens) [compound 65]	++ (≥20% = ++)
133 (FLDGRPLTL; listed as Homo sapiens) [compound 133]	++ (≥20% = ++)
125 (AALEVLAEV; listed as Homo sapiens) [compound 125]	+++ (≥50 = +++)
147 (GLLSALENV; listed as Homo sapiens) [compound 147]	+++ (≥50 = +++)
259 (GPGIFPPPPPQP; listed as Homo sapiens) [compound 259]	+ (≥10% = +)
179 (TLGEIIKGV; listed as Homo sapiens) [compound 179]	+++ (≥50 = +++)
3 (RVIDDSLVVGV; listed as Homo sapiens) [compound 3]	+++ (≥50 = +++)
215 (QIADIVTSV; listed as Homo sapiens) [compound 215]	++ (≥20% = ++)
20 (ALVEKGEFAL; listed as Homo sapiens) [compound 20]	++ (≥20% = ++)
266 (FLLDKPQDL; listed as Homo sapiens) [compound 266]	++ (≥20% = ++)
109 (ILGSFELQL; listed as Homo sapiens) [compound 109]	+++ (≥50 = +++)
241 (KQFEGTVEI; listed as Homo sapiens) [compound 241]	+++ (≥50 = +++)
47 (GLNGFNVLL; listed as Homo sapiens) [compound 47]	+++ (≥50 = +++)
45 (FLPVSVVYV; listed as Homo sapiens) [compound 45]	+++ (≥50 = +++)
192 (TLLPSSGLVTL; listed as Homo sapiens) [compound 192]	++ (≥20% = ++)
31 (GLLETTGLLAT; listed as Homo sapiens) [compound 31]	+++ (≥50 = +++)
222 (LLTGVFAQL; listed as Homo sapiens) [compound 222]	++ (≥20% = ++)

Substance	Peptide exchange (MHC class I binding score, peptide exchange yield)
187 (SILKEDPFL; listed as Homo sapiens) [compound 187]	++ (≥20% = ++)
69 (LKVLKADVVL; listed as Homo sapiens) [compound 69]	++ (≥20% = ++)
217 (LLWPSSVPA; listed as Homo sapiens) [compound 217]	+++ (≥50 = +++)
253 (KLLAVIHEL; listed as Homo sapiens) [compound 253]	+++ (≥50 = +++)
85 (KLLDKPEQFL; listed as Homo sapiens) [compound 85]	++ (≥20% = ++)
151 (DISKRIQSL; listed as Homo sapiens) [compound 151]	++ (≥20% = ++)
193 (ALFHMNILL; listed as Homo sapiens) [compound 193]	+++ (≥50 = +++)
99 (TLFGIQLTEA; listed as Homo sapiens) [compound 99]	+++ (≥50 = +++)
160 (TLQEWLTEV; listed as Homo sapiens) [compound 160]	+++ (≥50 = +++)
70 (GLTEKTVLV; listed as Homo sapiens) [compound 70]	++ (≥20% = ++)
265 (FLLDKPQDLSI; listed as Homo sapiens) [compound 265]	+++ (≥50 = +++)
134 (SLYKSFLQL; listed as Homo sapiens) [compound 134]	++ (≥20% = ++)
23 (ALLSPLSLA; listed as Homo sapiens) [compound 23]	+++ (≥50 = +++)
138 (GIINKLVTV; listed as Homo sapiens) [compound 138]	++ (≥20% = ++)
90 (AILNVDEKNQV; listed as Homo sapiens) [compound 90]	++ (≥20% = ++)
49 (KLIGNIHGNEV; listed as Homo sapiens) [compound 49]	++ (≥20% = ++)
63 (KLLPMVIQL; listed as Homo sapiens) [compound 63]	+++ (≥50 = +++)
22 (LMYPYIYHV; listed as Homo sapiens) [compound 22]	+++ (≥50 = +++)
177 (ALINVLNAL; listed as Homo sapiens) [compound 177]	+++ (≥50 = +++)
159 (QLGPVPVTI; listed as Homo sapiens) [compound 159]	+++ (≥50 = +++)
234 (VLLNEILEQV; listed as Homo sapiens) [compound 234]	++++ (≥75% = ++++)
36 (TVLQELINV; listed as Homo sapiens) [compound 36]	+++ (≥50 = +++)
171 (LLLLDVPTA; listed as Homo sapiens) [compound 171]	++ (≥20% = ++)
149 (NMADGQLHQV; listed as Homo sapiens) [compound 149]	++ (≥20% = ++)
123 (QTAPEEAFIKL; listed as Homo sapiens) [compound 123]	+ (≥10% = +)
